This note sets out measurements from patent publication CN109879966A (PERSONGEN BIOMEDICINE SUZHOU CO LTD, dated 2019).

This assay has as its target T1, CD19 (Biacore ligand coupled to the chip) (UniProt P15391 20-291, limits assumed).
T1 construct: also called 配体:CD19
T1 sequence (looked up): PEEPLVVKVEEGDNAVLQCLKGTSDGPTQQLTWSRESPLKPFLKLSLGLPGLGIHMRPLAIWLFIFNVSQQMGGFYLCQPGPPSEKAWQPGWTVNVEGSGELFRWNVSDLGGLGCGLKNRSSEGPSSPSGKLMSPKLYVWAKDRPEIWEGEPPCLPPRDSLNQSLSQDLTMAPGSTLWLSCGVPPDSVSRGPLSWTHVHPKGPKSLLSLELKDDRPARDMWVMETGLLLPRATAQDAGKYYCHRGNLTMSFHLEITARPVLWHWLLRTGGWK
Nature of the assay: Biacore SPR, CD19 coupled to chip, antibody as analyte 3.125-100 ug/ml. In general terms: SPR reads the build-up and loss of mass on a sensor chip optically.

B1: HM1711091-T4L2H2 (antibody, V domains shown)
VH: QVTLRESGPALVKPTQTLTLTCTFSGVSLPDYGVSWIRQPPGKALEWLAVIWGSETTYYNSALKSRLTISKDTSKNQVVLTMTNMDPVDTATYYCAKHYYYGGSYAMDYWGQGTTVTVSS
VL: EIVLTQSPATLSLSPGERATLSCRASQDISKYLNWYQQKPGQAPRLLIYHTSRLHSGIPDRFSGSGSGTDFTLTISRLEPEDIAVYYCQQGNTLPYTFGQGTKLEI
notes: Full antibody (全抗) used in the Biacore assay; also called 人源化单抗T4L2H2; 人源化T4L2H2抗体
In the case of B1, the Kd (as a rule, the equilibrium constant for the complex coming apart) came out at 28.4 nM; the koff – broadly, a measure of how fast the partners let go of each other – is 0.0028 s⁻¹; the kon (commonly the rate constant with which the complex forms) stood at 98600 M⁻¹ s⁻¹.

B2: HM1711091-T1L1H4 (antibody, V domains shown)
VH: QVQLQESGPGLVAPSETLSLTCTVSGVSLPDYGVSWIRQPPRKGLEWIGVIWGSETTYYNSALKSRVTISVDTSKNQFSLKLSSVTAADTAVYYCAKHYYYGGSYAMDYWGQGTLVTVSS
VL: DIQMTQSPSSLSASVGDRVTITCRASQDISKYLNWYQQKPGKAPKLLIYHTSRLHSGVPSRFSGSGSGTDFTFTISSLQPEDIATYYCQQGNTLPYTFGGGTKVEI
notes: Full antibody (全抗) used in the Biacore assay; also called 人源化单抗T1L1H4; 人源化T1L1H4抗体
Regarding B2, the Kd stood at 15.9 nM, the koff stood at 0.00441 s⁻¹ and the kon was found to be 278000 M⁻¹ s⁻¹.
